Results from patent US12194200B2, “Silk fibroin-based microneedles and methods of making the same” (Trustees of Tufts College, priority 2010, dated 2025).

Experiment: HRP enzymatic activity detected with chromogenic substrate
Type: biochemical
Details: after silk processing and collagenase digestion
Experimental: The release kinetics of HRP from silk fibroin microneedles into the collagen hydrogels (N=3) were determined spectroscopically. The collagen hydrogel was selectively digested with collagenase. Subsequently, a colorimetric HRP enzyme activity assay was carried out as described later in the Exemplary Materials and Methods (FIG. 9C). […] Compared to the 2 hour and 8 hour water annealed devices, the untreated silk microneedles released in the same time period about 2.7±0.18 and about 5.6±0.99 times as much HRP, respectively. The beta sheet content in the silk fiborin microneedle samples was determined, e.g., by infrared spectroscopy, with results of ˜14%, ˜18% and ˜21% for the untreated, 2 hr-annealed and 8 hr-annealed silk fibroin microneedle samples, respectively. […]
HRP release model: The silk fibroin microneedles were loaded with 1 mg/ml of HRP (Sigma Aldrich). […] The collagen or gelatin slab measured approximately 2.5 mm in height. […] The needles were pierced through Parafilm (Parafilm M, Pechiney Plastic Packaging) membranes (polymer membrane in FIG. 8A) and subsequently applied to the hydrogel slabs to quantify the HRP release. […] To quantify the total amount of HRP release from the silk fibroin microneedles, a plurality of stacks, each of which included an array of silk fibroin microneedles, a polymer membrane and a collagen hydrogel, were prepared and evaluated at multiple time points. […]

horseradish peroxidase [HRP]
enzymatic activity of HRP: retained activity
